Measured values published in US20210107983A1 (Boehringer Ingelheim, published 2021).

T1: human B7H6 on HCT-15 cells (human, UniProt Q68D85 25-454)
T1 sequence (looked up): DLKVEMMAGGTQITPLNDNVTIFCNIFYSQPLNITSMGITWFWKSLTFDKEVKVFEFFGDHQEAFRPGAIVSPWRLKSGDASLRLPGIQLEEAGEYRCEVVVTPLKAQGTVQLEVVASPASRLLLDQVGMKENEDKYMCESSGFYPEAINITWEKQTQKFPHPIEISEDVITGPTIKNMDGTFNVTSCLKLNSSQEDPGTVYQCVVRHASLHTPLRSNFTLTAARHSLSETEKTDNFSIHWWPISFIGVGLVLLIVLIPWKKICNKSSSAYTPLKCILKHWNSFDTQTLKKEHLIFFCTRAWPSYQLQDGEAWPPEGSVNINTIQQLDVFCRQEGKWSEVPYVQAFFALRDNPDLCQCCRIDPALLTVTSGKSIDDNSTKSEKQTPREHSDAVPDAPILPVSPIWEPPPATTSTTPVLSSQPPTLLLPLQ


Tests used:
[1] = target: T1, human B7H6 on HCT-15 cells; experiment: cell-based or functional assay
[2] = target: T2, Fc-His-tagged human B7H6 ECD (human); experiment: ELISA, plate coated with Fc-His-tagged human B7H6 ECD, anti-human IgG F(ab')2-peroxidase, TMB
T2 construct: also called huB7H6-ECD-Fc-His; recombinant human B7H6 ECD
Method: (§1) To assess binding of B7H6/CD3 binding proteins to recombinant human Fc-His-tagged B7H6 ECD and human Fc-His-tagged Ala-mutated B7H6 extracellular proteins as described in Example 3, MediSorp™ plates (Nunc, 467320) were coated with […] recombinant proteins overnight at 4° C. The next day, plates were blocked with 0.5% bovine serum albumin (BSA) in phosphate buffered saline (PBS) for 1 hour at room temperature (RT). Subsequently plates were washed with […] containing 0.05% TWEEN®20 viscous liquid and B7H6/CD3 binding proteins were incubated at concentrations ranging from 0.00001 to 10 μg/ml. After an additional washing step, bound B7H6/CD3 binding proteins were detected by a peroxidase conjugated goat anti-human IgG F(ab′)₂-specific secondary antibody (Jackson Immunoresearch) and visualized by TMB substrate solution (Bender Med Systems).

[3] = target: T1, human B7H6 on HCT-15 cells; experiment: flow cytometry on HCT-15 cells, PE anti-human secondary antibody
Method: Binding of B7H6/CD3 binding proteins to HCT-15, a human (colo-rectal cancer) CRC cell line was tested by flow cytometry. In a previous experiment, it has been confirmed that HCT-15 cells expresses B7-H6 on the RNA levels as well as the protein level with approximately 8,000 B7-H6 receptors on the cell surface (data not shown). B7H6/CD3 binding proteins were produced, as described in Example 2. HCT-15 cells were stained with increasing concentrations of two-step purified B7H6/CD3 binding proteins in FACS buffer (PBS/0.5% BSA/0.05% sodium azide). Bound molecules were detected with PE-conjugated anti-human secondary antibody (Sigma-Aldrich, #P8047).

[4] = target: T3, Fc-His-tagged human Ala-mutated B7H6 ECD (human); experiment: ELISA, plate coated with Fc-His-tagged human Ala-mutated B7H6 ECD, anti-human IgG F(ab')2-peroxidase, TMB
T3 construct: also called huB7H6-Ala-ECD
Method: as §1

Binder	EC50 [nM], 72 hour cytotoxicity assay, non-stimulated T-cells (Donor #1) as effector cells, HCT-15 cells as target cells [1]	EC50 (read off the curve) [2]	EC50 (read off the curve) [3]	EC50 (read off the curve) [4]
B7H6#10/CD3#1 (bispecific antibody, human IgG1, kappa, lambda, L234A L235A, scFab-Fc heterodimer, one B7H6 chain and one CD3 chain) chain 1: DIQMTQSPSSVSASVGDRVTITCRASQGISSWLAWYQQKPGKAPKLLIYVASSLQRGVPSRFSGSGSGTDFTLTISNLQPEDFATYYCQQANSFPRTFGQGTKVEIKRTVAAPSVFIFPPSDEQLKSGTASVVCLLNNFYPREAKVQWKVDNALQSGNSQESVTEQDSKDSTYSLSSTLTLSKADYEKHKVYACEVTHQGLSSPVTKSFNRGECGGGGSEGKSSGSGSESKSTEGKSSGSGSESKSTGGGGSQVHLQESGPGLVKPSETLSLTCTVSGDSISSYYWSWIRQPAGKGLEWIGHIYTSEKNNYNPSLKSRVIMSVDTSKNQFSLNLSSVTAADTAVYYCARVGNWGSHDAWGQGTLVTVSSASTKGPSVFPLAPSSKSTSGGTAALGCLVKDYFPEPVTVSWNSGALTSGVHTFPAVLQSSGLYSLSSVVTVPSSSLGTQTYICNVNHKPSNTKVDKRVEPKSCDKTHTCPPCPAPEAAGGPSVFLFPPKPKDTLMISRTPEVTCVVVDVSHEDPEVKFNWYVDGVEVHNAKTKPREEQYNSTYRVVSVLTVLHQDWLNGKEYKCKVSNKALPAPIEKTISKAKGQPREPQVYTLPPSREEMTKNQVSLWCLVKGFYPSDIAVEWESNGQPENNYKTTPPVLDSDGSFFLYSKLTVDKSRWQQGNVFSCSVMHEALHNHYTQKSLSLSPG chain 2: EAVVTQEPSLTVSPGGTVTLTCRSSTGAVTTSNYANWVQEKPGQLPRGLIGGTNKRAPWVPARFSGSLLGGKAALTLSGAQPEDEAEYFCALWYSNLWVFGGGTKLTVLGQPKAAPSVTLFPPSSEELQANKATLVCLISDFYPGAVKVAWKADGSPVNTGVETTTPSKQSNNKYAASSYLSLTPEQWKSHRSYSCQVTHEGSTVEKTVAPAECSGGGGSEGKSSGSGSESKSTEGKSSGSGSESKSTGGGGSEVQLVESGGGLVQPGGSLKLSCAASGFTFNTYAMNWVRQAPGKGLEWVARIRSKYNNYATYYADSVKDRFTISRDDSKNTAYLQMNNLKTEDTAVYYCVRHGNFGNSYVSWFAYWGQGTLVTVSAASTKGPSVFPLAPSSKSTSGGTAALGCLVKDYFPEPVTVSWNSGALTSGVHTFPAVLQSSGLYSLSSVVTVPSSSLGTQTYICNVNHKPSNTKVDKRVEPKSCDKTHTCPPCPAPEAAGGPSVFLFPPKPKDTLMISRTPEVTCVVVDVSHEDPEVKFNWYVDGVEVHNAKTKPREEQYNSTYRVVSVLTVLHQDWLNGKEYKCKVSNKALPAPIEKTISKAKGQPREPQVYTLPPSREEMTKNQVSLSCAVKGFYPSDIAVEWESNGQPENNYKTTPPVLDSDGSFFLVSKLTVDKSRWQQGNVFSCSVMHEALHNRFTQKSLSLSPG	0.53 nM	~0.05 µg/mL	~0.9 nM	
B7H6#4/CD3#1 (bispecific antibody, human IgG1, kappa, lambda, L234A L235A, scFab-Fc heterodimer, one B7H6 chain and one CD3 chain) chain 1: DIVMTQSQKFMSTSVGDRVSVTCKASQNVGKYVAWYQQKPGQSPKALIYSASNRYDGVPDRFTGSGSGTDFTLTITNVQSEDLTEYFCQQYISYPLTFGAGTKLELKRTVAAPSVFIFPPSDEQLKSGTASVVCLLNNFYPREAKVQWKVDNALQSGNSQESVTEQDSKDSTYSLSSTLTLSKADYEKHKVYACEVTHQGLSSPVTKSFNRGECGGGGSEGKSSGSGSESKSTEGKSSGSGSESKSTGGGGSQVQLQQPGSVLVRPGASVRLSCKASGYTFTNYWMNWMKQRPGQGLEWIGGIYLNGDSTDYNEKFKGKATLTVDTSSSTTYMDLSSLTYEDSAVYYCTTRGDYFGDFWGQGTTLTVSSASTKGPSVFPLAPSSKSTSGGTAALGCLVKDYFPEPVTVSWNSGALTSGVHTFPAVLQSSGLYSLSSVVTVPSSSLGTQTYICNVNHKPSNTKVDKRVEPKSCDKTHTCPPCPAPEAAGGPSVFLFPPKPKDTLMISRTPEVTCVVVDVSHEDPEVKFNWYVDGVEVHNAKTKPREEQYNSTYRVVSVLTVLHQDWLNGKEYKCKVSNKALPAPIEKTISKAKGQPREPQVYTLPPSREEMTKNQVSLWCLVKGFYPSDIAVEWESNGQPENNYKTTPPVLDSDGSFFLYSKLTVDKSRWQQGNVFSCSVMHEALHNHYTQKSLSLSPG chain 2: EAVVTQEPSLTVSPGGTVTLTCRSSTGAVTTSNYANWVQEKPGQLPRGLIGGTNKRAPWVPARFSGSLLGGKAALTLSGAQPEDEAEYFCALWYSNLWVFGGGTKLTVLGQPKAAPSVTLFPPSSEELQANKATLVCLISDFYPGAVKVAWKADGSPVNTGVETTTPSKQSNNKYAASSYLSLTPEQWKSHRSYSCQVTHEGSTVEKTVAPAECSGGGGSEGKSSGSGSESKSTEGKSSGSGSESKSTGGGGSEVQLVESGGGLVQPGGSLKLSCAASGFTFNTYAMNWVRQAPGKGLEWVARIRSKYNNYATYYADSVKDRFTISRDDSKNTAYLQMNNLKTEDTAVYYCVRHGNFGNSYVSWFAYWGQGTLVTVSAASTKGPSVFPLAPSSKSTSGGTAALGCLVKDYFPEPVTVSWNSGALTSGVHTFPAVLQSSGLYSLSSVVTVPSSSLGTQTYICNVNHKPSNTKVDKRVEPKSCDKTHTCPPCPAPEAAGGPSVFLFPPKPKDTLMISRTPEVTCVVVDVSHEDPEVKFNWYVDGVEVHNAKTKPREEQYNSTYRVVSVLTVLHQDWLNGKEYKCKVSNKALPAPIEKTISKAKGQPREPQVYTLPPSREEMTKNQVSLSCAVKGFYPSDIAVEWESNGQPENNYKTTPPVLDSDGSFFLVSKLTVDKSRWQQGNVFSCSVMHEALHNRFTQKSLSLSPG	0.23 nM	~0.05 µg/mL		~0.2 µg/mL
B7H6#7/CD3#1 (bispecific antibody, human IgG1, kappa, lambda, L234A L235A, scFab-Fc heterodimer, one B7H6 chain and one CD3 chain) chain 1: DIQMTQSPSSVSASVGDRVTITCRASQGISSWLAWYQQKPGKAPNLLIYAASSLQSGVPSRFSGSGSGTDFTLTISSLQPEDFATYYCQQANSFPRTFGQGTKVEIKRTVAAPSVFIFPPSDEQLKSGTASVVCLLNNFYPREAKVQWKVDNALQSGNSQESVTEQDSKDSTYSLSSTLTLSKADYEKHKVYACEVTHQGLSSPVTKSFNRGECGGGGSEGKSSGSGSESKSTEGKSSGSGSESKSTGGGGSQVQLQESGPGLVKPSETLSLTYTVSGGSISYNYWSWIRQPPEKGLEWIGHIYYSGSTNYNPSLKSRVTISVDTSKNQFSLKLNSVTAADTAVYYCARVGTWGSFDDWGQGTLVTVSSASTKGPSVFPLAPSSKSTSGGTAALGCLVKDYFPEPVTVSWNSGALTSGVHTFPAVLQSSGLYSLSSVVTVPSSSLGTQTYICNVNHKPSNTKVDKRVEPKSCDKTHTCPPCPAPEAAGGPSVFLFPPKPKDTLMISRTPEVTCVVVDVSHEDPEVKFNWYVDGVEVHNAKTKPREEQYNSTYRVVSVLTVLHQDWLNGKEYKCKVSNKALPAPIEKTISKAKGQPREPQVYTLPPSREEMTKNQVSLWCLVKGFYPSDIAVEWESNGQPENNYKTTPPVLDSDGSFFLYSKLTVDKSRWQQGNVFSCSVMHEALHNHYTQKSLSLSPG chain 2: EAVVTQEPSLTVSPGGTVTLTCRSSTGAVTTSNYANWVQEKPGQLPRGLIGGTNKRAPWVPARFSGSLLGGKAALTLSGAQPEDEAEYFCALWYSNLWVFGGGTKLTVLGQPKAAPSVTLFPPSSEELQANKATLVCLISDFYPGAVKVAWKADGSPVNTGVETTTPSKQSNNKYAASSYLSLTPEQWKSHRSYSCQVTHEGSTVEKTVAPAECSGGGGSEGKSSGSGSESKSTEGKSSGSGSESKSTGGGGSEVQLVESGGGLVQPGGSLKLSCAASGFTFNTYAMNWVRQAPGKGLEWVARIRSKYNNYATYYADSVKDRFTISRDDSKNTAYLQMNNLKTEDTAVYYCVRHGNFGNSYVSWFAYWGQGTLVTVSAASTKGPSVFPLAPSSKSTSGGTAALGCLVKDYFPEPVTVSWNSGALTSGVHTFPAVLQSSGLYSLSSVVTVPSSSLGTQTYICNVNHKPSNTKVDKRVEPKSCDKTHTCPPCPAPEAAGGPSVFLFPPKPKDTLMISRTPEVTCVVVDVSHEDPEVKFNWYVDGVEVHNAKTKPREEQYNSTYRVVSVLTVLHQDWLNGKEYKCKVSNKALPAPIEKTISKAKGQPREPQVYTLPPSREEMTKNQVSLSCAVKGFYPSDIAVEWESNGQPENNYKTTPPVLDSDGSFFLVSKLTVDKSRWQQGNVFSCSVMHEALHNRFTQKSLSLSPG	0.36 nM	~0.05 µg/mL	~1 nM	
